Results on 167 variants are retold here after the RNAGym collection of RNA variant scans (doi:10.7554/elife.80360).

The labels stand for the following.
B1: HDV Ribozyme (parent)
chain: GGCCGGCAUGGUCCCAGCCUCCUCGCUGGCGCCGGCUGGGCAACAUUCCGAGGGGACCGUCCCCUCGGUAAUGGCGAAUGGGACCCA

In the series the parent is B1. Kind of series: self-cleavage, relative activity (ratio to wild type); higher = more cleavage; co-transcriptional.
In the case of C15U, the self-cleavage was found to be 0.965.

Consider C15G, for which the self-cleavage was determined as 0.663.

Turning to C15U A87C, the self-cleavage turned out to be 1.03.

Consider C15G A43U, for which the self-cleavage was determined as 0.123.

As to C15A G35U, the self-cleavage worked out at 0.188.

As to A16G G54A, the self-cleavage is 0.727.

Take C15A C84A: the self-cleavage worked out at 0.539.

Take A16C C86A: the self-cleavage amounted to 0.692.

For C15G A16U, the self-cleavage came out at 0.795.

With A16G C41A, the self-cleavage worked out at 0.798.

Turning to A16G A87C, the self-cleavage worked out at 1.09.

A16G C49A: the self-cleavage was 1.08.

Consider A16C G17A, for which the self-cleavage is 0.519.

As for A16U C86U, the self-cleavage came out at 0.852.

As for A16G G80U, the self-cleavage was determined as 0.208.

As for A16U G40C, the self-cleavage stood at 0.365.

For A16G A83C, the self-cleavage came out at 0.462.

Turning to A16G A83G, the self-cleavage amounted to 0.755.

As to C15A C62A, the self-cleavage turned out to be 0.677.

Regarding C15A C62G, the self-cleavage worked out at 0.499.

For C15A C62U, the self-cleavage was 0.764.

In the case of A16G C21A, the self-cleavage came out at 0.

For the variant A16G C21G, the self-cleavage came to 0.0875.

As to A16U U20A, the self-cleavage is 0.0875.

Regarding A16G C63A, the self-cleavage came to 1.03.

C15G A71G: the self-cleavage is 0.727.

For A16U A70C, the self-cleavage was 0.538.

In the case of A16U A70G, the self-cleavage worked out at 0.855.

C15U G68U: the self-cleavage worked out at 0.88.

Take C15U G68A: the self-cleavage is 0.759.

Turning to C15A G73A, the self-cleavage was 0.283.

Regarding A16U C41G, the self-cleavage is 0.401.

For the variant A16U C41A, the self-cleavage was found to be 0.87.

Turning to A16C C22A, the self-cleavage was determined as 0.0594.

As for A16C C22U, the self-cleavage came to 0.369.

Turning to C15A A16U, the self-cleavage worked out at 0.499.

With C15A A16G, the self-cleavage worked out at 0.35.

As to C15A A56G, the self-cleavage was 0.587.

With C15G U72A, the self-cleavage was 0.0875.

Take C15A G25U: the self-cleavage came to 0.0791.

On to C15A C49G, for which the self-cleavage came out at 0.166.

Take C15A C49U: the self-cleavage came out at 0.656.

For C15U C32G, the self-cleavage was found to be 0.0489.

For the variant C15A G28U, the self-cleavage is 0.0615.

Turning to C15U C26U, the self-cleavage is 1.2.

For A16G G28U, the self-cleavage amounted to 0.0519.

A16U A77G: the self-cleavage stood at 0.739.

As for C15U A70U, the self-cleavage was found to be 0.831.

Regarding A16G C24G, the self-cleavage is 0.178.

As for A16C C84A, the self-cleavage is 0.655.

Regarding A16C C84G, the self-cleavage is 0.87.

As to C15U C58U, the self-cleavage was determined as 0.811.

Turning to C15U C58G, the self-cleavage turned out to be 1.36.

For C15U G39U, the self-cleavage was 0.322.

Regarding C15G G40C, the self-cleavage turned out to be 0.271.

With C15A G76A, the self-cleavage came out at 0.712.

As to C15G A70C, the self-cleavage came out at 0.776.

As for C15G A45U, the self-cleavage was found to be 0.594.

Consider A16G C57G, for which the self-cleavage came to 1.2.

Consider A16G C57U, for which the self-cleavage was 1.14.

For C15U U46G, the self-cleavage turned out to be 0.499.

Take C15U U46C: the self-cleavage came to 0.9.

Consider A16C C63A, for which the self-cleavage amounted to 0.942.

Consider A16C A78G, for which the self-cleavage stood at 0.361.

Regarding C15A U20C, the self-cleavage was found to be 0.135.

Regarding C15G G34C, the self-cleavage was determined as 0.

As to A16C G29U, the self-cleavage is 0.0755.

Consider A16G G76C, for which the self-cleavage stood at 1.12.

Turning to A16C U27C, the self-cleavage amounted to 0.293.

Turning to C15A G29C, the self-cleavage was 0.0692.

On to C15A G29U, for which the self-cleavage came out at 0.

On to C15U G81U, for which the self-cleavage was 0.554.

Turning to C15U G81A, the self-cleavage is 0.554.

For the variant C15U A43U, the self-cleavage worked out at 0.284.

For A16C C75G, the self-cleavage turned out to be 0.268.

As for C15G G54A, the self-cleavage was found to be 0.534.

Consider A16C G67C, for which the self-cleavage came out at 0.692.

A16C G67U: the self-cleavage worked out at 1.17.

Regarding C15G A77G, the self-cleavage came out at 0.332.

Regarding C15G A77U, the self-cleavage came out at 0.158.

As to A16U G34U, the self-cleavage turned out to be 0.128.

For the variant C15A G55A, the self-cleavage was found to be 0.796.

With A16C U65C, the self-cleavage was found to be 0.256.

As to A16C G34U, the self-cleavage was found to be 0.0489.

With A16C C30G, the self-cleavage was 0.128.

In the case of A16C C30A, the self-cleavage was found to be 0.208.

A16C G53U: the self-cleavage is 0.755.

For C15A A43C, the self-cleavage is 0.0554.

On to C15A A43G, for which the self-cleavage was determined as 0.323.

Turning to A16U C26U, the self-cleavage came out at 0.831.

Consider A16U G53U, for which the self-cleavage is 0.985.

As for C15U C63U, the self-cleavage stood at 0.914.

For the variant C15A U27A, the self-cleavage amounted to 0.594.

With C15A U27C, the self-cleavage stood at 0.277.

C15G G25A: the self-cleavage amounted to 0.161.

On to A16G C36A, for which the self-cleavage came to 0.229.

As to C15G C75U, the self-cleavage is 0.237.

With A16U G73C, the self-cleavage came out at 0.437.

For A16U G73A, the self-cleavage came to 0.222.

Take A16G A42C: the self-cleavage was 0.0755.

A16G C61A: the self-cleavage was found to be 1.08.

Take A16G C61U: the self-cleavage turned out to be 1.26.

As to A16U A42G, the self-cleavage came to 0.166.

With A16G G50A, the self-cleavage turned out to be 1.4.

Regarding C15A U79A, the self-cleavage was 0.519.

Turning to A16G C85A, the self-cleavage worked out at 1.32.

On to A16U G31C, for which the self-cleavage was 0.0437.

On to C15U G35A, for which the self-cleavage is 0.475.

Regarding C15U G35C, the self-cleavage was determined as 0.0723.

As to C15A C30U, the self-cleavage amounted to 0.104.

In the case of C15A C85G, the self-cleavage was 0.739.

Turning to C15A C61G, the self-cleavage turned out to be 0.508.

With C15A C58G, the self-cleavage was found to be 1.02.

Turning to C15A C26U, the self-cleavage was found to be 0.895.

As to C15A A42U, the self-cleavage turned out to be 0.269.

Regarding A16G C30G, the self-cleavage came to 0.122.

Consider A16G C30A, for which the self-cleavage turned out to be 0.702.

As to C15A C48G, the self-cleavage was found to be 0.475.

In the case of C15U G50A, the self-cleavage was 1.08.

Regarding C15A G31A, the self-cleavage came out at 0.16.

As to C15A G31C, the self-cleavage was found to be 0.

Consider C15G G74A, for which the self-cleavage was found to be 0.13.

C15U C49G: the self-cleavage stood at 0.485.

On to C15G C36U, for which the self-cleavage stood at 0.264.

With A16C G82U, the self-cleavage stood at 0.201.

As for A16C A70G, the self-cleavage came out at 0.923.

Consider A16U G81A, for which the self-cleavage stood at 0.813.

For the variant C15G C44G, the self-cleavage turned out to be 0.434.

For the variant C15G G73A, the self-cleavage came to 0.162.

As to C15G G73U, the self-cleavage was found to be 0.147.

As to A16G G38U, the self-cleavage is 0.341.

Consider A16G C58U, for which the self-cleavage came to 0.962.

Regarding C15U C61A, the self-cleavage came out at 1.27.

Regarding C15U C61U, the self-cleavage is 0.882.

For the variant C15A C86A, the self-cleavage was determined as 0.665.

A16G U69C: the self-cleavage worked out at 1.15.

On to C15U C36U, for which the self-cleavage was determined as 0.886.

As for C15A A71U, the self-cleavage is 0.802.

Turning to C15U C66A, the self-cleavage amounted to 1.11.

As for A16C U23G, the self-cleavage was 0.688.

In the case of A16G U65A, the self-cleavage was found to be 0.974.

For A16G U65G, the self-cleavage came out at 1.01.

As to C15U U27C, the self-cleavage stood at 0.712.

For the variant A16C G81U, the self-cleavage came out at 0.519.

On to A16C G81C, for which the self-cleavage was 0.346.

In the case of A16U U46A, the self-cleavage worked out at 0.489.

In the case of A16U U46C, the self-cleavage was found to be 1.21.

With A16U U46G, the self-cleavage was determined as 0.437.

In the case of C15G G29A, the self-cleavage worked out at 0.0339.

Regarding C15G G29C, the self-cleavage stood at 0.

With C15U C84G, the self-cleavage is 0.635.

Take C15U C84U: the self-cleavage was found to be 0.962.

As to A16C C66G, the self-cleavage came out at 0.554.

As to A16C C32U, the self-cleavage is 0.332.

For A16C C32G, the self-cleavage is 0.293.

As to C15U C57G, the self-cleavage was 1.06.

For the variant C15U G59U, the self-cleavage amounted to 0.895.

On to A16G C44U, for which the self-cleavage came to 0.615.

In the case of A16G C44A, the self-cleavage is 0.748.

With A16U C36U, the self-cleavage is 0.631.

With C15A C75U, the self-cleavage turned out to be 0.141.

As for C15U G54U, the self-cleavage amounted to 0.901.

As to C15A C32U, the self-cleavage is 0.314.

For the variant A16C G38C, the self-cleavage came out at 0.

In the case of A16G G59A, the self-cleavage stood at 1.29.

Take A16G G59U: the self-cleavage was 1.11.

Consider A16C C62G, for which the self-cleavage is 0.403.
